Experimental data taken from article PMC6021441, “Structural basis of the correct subunit assembly, aggregation, and intracellular degradation of nylon hydrolase” (Scientific Reports, 2018).
Positions count from the first letter of the chain named.

Experiments:
Assay in all cases: crystal structure; sitting-drop vapor diffusion, ammonium sulfate, 0.1 M HEPES pH 7.5, 0.2 M NaCl, 25% glycerol; space group C222_(1), two molecules (A/B dimer) in the asymmetric unit, tetramer by the crystallographic two-fold axis
Conditions in all cases: both partners purified
[1] = molecular target: T1, NylCp2 alpha subunit (27 kDa), wild type (Arthrobacter, UniProt Q79F77 1-266)
T1 construct: NylCp2, alpha subunit made by autocleavage of the 355-residue precursor between Asn266 and Thr267; also called α subunit; source: E. coli JM109, purified with the beta subunit as the active enzyme
T1 sequence (looked up): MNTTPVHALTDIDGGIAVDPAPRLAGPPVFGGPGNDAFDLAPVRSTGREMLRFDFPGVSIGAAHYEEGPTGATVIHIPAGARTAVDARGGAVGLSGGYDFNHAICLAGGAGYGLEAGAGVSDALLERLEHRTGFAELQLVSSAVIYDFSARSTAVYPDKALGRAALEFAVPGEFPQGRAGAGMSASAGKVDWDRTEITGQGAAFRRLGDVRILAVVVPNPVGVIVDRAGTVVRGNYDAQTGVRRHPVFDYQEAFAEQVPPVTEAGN

[2] = molecular target: T2, NylCp2-G^122 alpha subunit (D122G) (Arthrobacter, UniProt Q79F77 1-266, D122G)
T2 construct: NylCp2 alpha subunit with D122G; also called α subunit of NylCp2-G^122; source: E. coli JM109, purified with the beta subunit as the active enzyme
T2 sequence (looked up): T1 sequence (looked up) with D122G

[3] = molecular target: T3, NylCp2-R^122 alpha subunit (D122R) (Arthrobacter, UniProt Q79F77 1-266, D122R)
T3 construct: NylCp2 alpha subunit with D122R; also called α subunit of NylCp2-R^122; source: E. coli JM109, purified with the beta subunit as the active enzyme
T3 sequence (looked up): T1 sequence (looked up) with D122R

[4] = molecular target: T4, NylCp2-V^122 alpha subunit (D122V) (Arthrobacter, UniProt Q79F77 1-266, D122V)
T4 construct: NylCp2 alpha subunit with D122V; also called α subunit of NylCp2-V^122; source: E. coli JM109, purified with the beta subunit as the active enzyme
T4 sequence (looked up): T1 sequence (looked up) with D122V

[5] = molecular target: T5, NylCp2-Y^130 alpha subunit (H130Y) (Arthrobacter, UniProt Q79F77 1-266, H130Y)
T5 construct: NylCp2 alpha subunit with H130Y; also called α subunit of NylCp2-Y^130; source: E. coli JM109, purified with the beta subunit as the active enzyme
T5 sequence (looked up): T1 sequence (looked up) with H130Y

[6] = molecular target: T6, NylCp2-G^122Y^130A^36Q^263 alpha subunit (D122G/H130Y/D36A/E263Q) (Arthrobacter, UniProt Q79F77 1-266, D122G | H130Y | D36A | E263Q)
T6 construct: NylCp2 alpha subunit with four substitutions; also called α subunit of NylCp2-G^122Y^130A^36Q^263; source: E. coli JM109, purified with the beta subunit as the active enzyme
T6 sequence (looked up): T1 sequence (looked up) with D36A, D122G, H130Y, E263Q

Measured: binding result

B1: NylCp2 beta subunit (9 kDa) (domain or fragment, Arthrobacter, UniProt Q79F77 267-355, looked up)
chain: TTISAIVTNVRMSPVELNQFAKQVHSSMHRGIQPFHTDMDGDTLFAVTTDEIDLPTTPGSSRGRLSVNATALGAIASEVMWDAVLEAGK
notes: NylCp2, beta subunit made by autocleavage of the 355-residue precursor between Asn266 and Thr267; the same in the wild type and in the mutants crystallised here (all their substitutions lie in the alpha subunit); also called β subunit; source: E. coli JM109, purified with the alpha subunit as the active enzyme
binds: [1] | [2] | [3] | [4] | [5] | [6]
